Source: publication PMC5835687, “Great Cause—Small Effect: Undeclared Genetically Engineered Orange Petunias Harbor an Inefficient Dihydroflavonol 4-Reductase” (Frontiers in Plant Science, 2018)

Key:
[1] = substrate: O=C1c2c(O)cc(O)cc2O[C@H](c2cc(O)c(O)c(O)c2)[C@H]1O; test: purified protein; conditions: NADPH-dependent reduction; labelled compound
[2] = substrate: O=C1c2c(O)cc(O)cc2O[C@H](c2ccc(O)c(O)c2)[C@H]1O; test: DFR enzyme assay, radiolabelled substrate, as previously described; type: biochemical, Zea mays; conditions: NADPH-dependent reduction; labelled compound

B1: recombinant A1 protein (maize DFR) (Zea mays) (protein)
chain: MERGAGASEKGTVLVTGASGFVGSWLVMKLLQAGYTVRATVRDPANVGKTKPLMDLPGATERLSIWKADLAEEGSFHDAIRGCTGVFHVATPMDFLSKDPENEVIKPTVEGMISIMRACKEAGTVRRIVFTSSAGTVNLEERQRPVYDEESWTDVDFCRRVKMTGWMYFVSKTLAEKAALAYAAEHGLDLVTIIPTLVVGPFISASMPPSLITALALITGNAPHYSILKQVQLIHLDDLCDAEIFLFENPAAAGRYVCSSHDVTIHGLAAMLRDRYPEYDVPQRFPGIQDDLQPVRFSSKKLQDLGFTFRYKTLEDMFDAAIRTCQEKGLIPLATAAGGDGFASVRAPGETEATIGA
notes: full-length A1 cDNA in pGEX-6P-1, GST fusion from E. coli, GST tag removed, purified; A1 CDS 1,074 bp
Km [1]: 3.1 µM
kcat [1]: 0.87 s⁻¹
Km [2]: 2.9 µM
kcat [2]: 0.70 s⁻¹

B2: recombinant PhDFR (Petunia × hybrida DFR) (Petunia x hybrida) (protein)
chain: MASEAVHAPSPPVAVPTVCVTGAAGFIGSWLVMRLLERGYNVHATVRDPENKKKVKHLLELPKADTNLTLWKADLTVEGSFDEAIQGCQGVFHVATPMDFESKDPENEVIKPTVRGMLSIIESCAKANTVKRLVFTSSAGTLDVQEQQKLFYDQTSWSDLDFIYAKKMTGWMYFASKILAEKAAMEEAKKKNIDFISIIPPLVVGPFITPTFPPSLITALSLITGNEAHYCIIKQGQYVHLDDLCEAHIFLYEHPKADGRFICSSHHAIIYDVAKMVREKWPEYYVPTEFKGIDKDLPVVSFSSKKLTDMGFQFKYTLEDMYKGAIDTCRQKQLLPFSTRSAEDNGHNREAIAISAQNYASGKENAPVANHTEMLSNVEV
Km [1]: 1.3 µM
kcat [1]: 2.14 s⁻¹
